Laboratory results from patent US20090269346A1.

Experiments:
[1] = biological target: GFRα-1; test: solid-phase binding assay (FIG. 11)
[2] = biological target: GFRα-1; test: solid-phase assay (ELISA): RAP-GDNF concentration varied on GFRalpha-1, OD 450 nm; per paragraph 304 GFRalpha-1 coated on the plate and bound protein detected with anti-GDNF mAb
[3] = biological target: LRP2 CR89 Y1042W V1047D (human) (UniProt P98164); test: solid-phase assay, coated CR protein, anti-RAP, OD450
[4] = biological target: LRP1 CR3-5 (human); test: solid-phase assay, coated CR protein, RAP-IDU detected by iduronidase activity
[5] = biological target: LRP2 CR3435 (human) (UniProt P98164); test: solid-phase assay: CR protein coated on the plate, RAP-IDU titrated, bound iduronidase activity read as rfu

Chain of LRP1 CR3-5 (human) (Q07954 852-973): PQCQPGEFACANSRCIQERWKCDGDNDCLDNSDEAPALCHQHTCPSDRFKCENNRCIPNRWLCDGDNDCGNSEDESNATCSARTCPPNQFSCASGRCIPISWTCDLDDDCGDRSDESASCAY
Chain of LRP2 CR89 Y1042W V1047D (human) (P98164 1022-1105 Y1043W/V1048D limits assumed): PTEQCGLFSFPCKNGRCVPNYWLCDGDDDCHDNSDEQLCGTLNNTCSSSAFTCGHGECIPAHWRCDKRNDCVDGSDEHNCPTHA

RAP-GDNF fusion protein (from UniProt P39905 78-211)
Kd [1]: 5 ng/mL | EC50 (read off the curve) [2]: 2 ng/mL

wild-type RAP d3 (from UniProt P30533 235-353) (ligand)
% max bind [3]: 11%

RAP-IDU (fusion of RAP and human α-L-iduronidase) (from UniProt P35475 28-653)
Kd [4]: 3 nM | Kd [5]: 722 nM
